Measurements reported in the nanobody polyreactivity screen of Harvey et al. (2022).

Test: yeast display, Sf9 membrane polyspecificity reagent, FACS + sequencing; frameworks hold sequencing errors
How it was run: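 A synthetic nanobody library was expressed on Saccharomyces cerevisiae BJ5465 by galactose induction for 36–48 hours. The library was stained for 1 hour at 4 °C with 10% biotinylated, detergent-solubilized Sf9 membrane reagent and enriched with streptavidin microbeads before FACS. Low and high (top ~1%) gates were set on anti-HA fluorescence for expression and streptavidin fluorescence for reagent binding, and each polyreactivity label reflects the gate of origin.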

Sequence | polyreactivity (PSR sort gate)
QVQLVESGGGLVQAGGSLRLSCAASGFTFPYYAMGWYRQAPGKERELVAAISKSGGSTYYADSVKGRFTISRDYAKNTVYLQMNSLKPEDTAVYYCAADWYWWSYSDRHDYWGQGIQVTVSS | high polyreactivity
QVQLVESGGGLVQAGGSLRLSCAASGFTFPYYAMGWYRQAPGKERELVAAISYSGSTTYYADSVKGRFTISRDNAKNTVYLQMNSLKPEDTAVYYCAKAGYYYFQQWQVDYWGQGTQVTVSS | high polyreactivity
QVQLVESGGGLVQAGGSLRLSCAASGFTFPYYAMGWYRQAPGKERELVAVISRSGGSTYYADSVKGRFTISRDNAKNTVYLQMNSLKPEDTAVYYCAKRYSLTGGKRTGYYWGQGTQVTVSS | high polyreactivity
QVQLVESGGGLVQAGGSLRLSCAASGFTFPYYSMGWYRQAPGKERELVAAINRSGGTKYADSVKGRFTISRDNAKNTVYVQMNSLKPEDTAVYDCAADSFYSRSRYDYWGQGSQVTVSS | high polyreactivity
QVQLVESGGGLVQAGGSLRLSCAASGFTFQDYAMGWYRQAPGKERELVASISNGGSTYYADSVKGRFTISRDNAKNTVYLQMNSLKPEDTAVYYCAKPYDPGPYHSSYRATDDYWGQGTQVTVSS | low polyreactivity
QVQLVESGGGLVQAGGSLRLSCAASGFTFQGYVMGWYRQAPGKERELVARITNDGSTTYADSVKGRFTISRDNAKNTVYLQMNSLKPEDTAVYYCDRPYRFWRYYGMYYWGQGTQVTVSS | high polyreactivity
QVQLVESGGGLVQAGGSLRLSCAASGFTFQRYAMGWYRQAPGKERELVAAISVRGTRTYYADSVKGRFTISRDNAMNTVYLQMNSLKPEDTAVYYCNADWERDVQDDYWGQGTQVTVSS | high polyreactivity
QVQLVESGGGLVQAGGSLRLSCAASGFTFQRYAMGWYRQAPGKERELVATINWSGRTYYADSVNGRFTISRDNAKNTVYLQMNSLKPEDTAVYYCAAERIQYGWWVLFDYWGQGTQVTVSS | high polyreactivity
QVQLVESGGGLVQAGGSLRLSCAASGFTFQTYAMGWYRQAPGKERELVATINSSGGGTYYADSVKGRFTNSRDNAKNTVYLQMNSLKPEDTAVYYCAADAVWFVGQAFDISDSTTYGYWGQGTQVTVSS | low polyreactivity
QVQLVESGGGLVQAGGSLRLSCAASGFTFQYNAMGWYRQAPGKERELVAGISRSGANTYYADSVKGRFTISRDTAKNTVYLQMNSLKPEDTAVYYCNNLTSRVGPDEYDYWGQGTQVTVSS | high polyreactivity
QVQLVESGGGLVQAGGSLRLSCAASGFTFQYYAMGWYRQAPGKERELVAAISWSGDSTYYADSVKGRITISRENAKNSVYLQMNSLKPEDTAVYYCAVYYTRGYDYWGQGTQVTVSS | high polyreactivity
QVQLVESGGGLVQAGGSLRLSCAASGFTFQYYSMGWYRQAPGKERELVAAISSSGGSTYYADSVKGRFTISRDNAENTVYLQMNSLKPEDTAVYYCAIRVSTYGFSGYDYWGQGTQVTVSS | high polyreactivity
QVQLVESGGGLVQAGGSLRLSCAASGFTFRANGMGWYRQAPGKERELVATITSGGTTNYADSVKGRFTISRDNAKITVYLQMNSLKPEDTAVYYCAKAFRHSTFFAPYDYWRQGTQVTVSS | low polyreactivity
QVQLVESGGGLVQAGGSLRLSCAASGFTFRAYAMGWYRQAPGKERELVAAITRSGVSTYYADSVKGRFTISRDNAKNTVYLQMNSLKPEDTAVYYCAAVAQRVGRSGTIEGDSWGQGTQVTVSS | high polyreactivity
QVQLVESGGGLVQAGGSLRLSCAASGFTFRFYAMGWYRQAPGKERELVATISSRGGRTYYADSVKGRFTISRDNAKNTVYLQMNSLKPEDTAVYYCNKDLYRYPGYDYWGQGTQVTVSS | high polyreactivity
QVQLVESGGGLVQAGGSLRLSCAASGFTFRGYAMGWYRQAPGKERELVAAITSRGGTTYYADSVKGRFTISRDNAKNTVYLQMNSLKPEDTAVYYCATTGGYTRGIGWYNYWGQGTQVTVSS | high polyreactivity

Sequence | polyreactivity (PSR sort gate)
QVQLVESGGGLVQAGGSLRLSCAASGFTFRINAMGWYRQAPGKERELVAVITGSGTSTYYADSVKGRFTISRDNAKNTVYLQMNSLKPEDTAVYYCAKRGFISQKYYYWGQGTQGTVSS | high polyreactivity
QVQLVESGGGLVQAGGSLRLSCAASGFTFRIYAMGWYRQAPGKERELVAAITSGGRTYYADSVKGRFTISRDNAKNTVYLQMNSLKPEDTAVYYCAALYFTRDRYDYWGQGTQVTVSS | high polyreactivity
QVQLVESGGGLVQAGGSLRLSCAASGFTFRKNDMGWYRQAPGKERELLAAISSGGGRTYYADSVKWRFTISRDNAKNTVYLQMNSLKQEDTAVYYCNADDGYYVGLSSAIYDYCGQGTQVTVSS | high polyreactivity
QVQLVESGGGLVQAGGSLRLSCAASGFTFRLYDMGCYIQAPGKERELVAAISIRGGRTYYADSVKGRFTISRDNAKNTVYLQMNSLKPEDTAVYYCAAYSQYLKRDYWGQGTQVTVSS | high polyreactivity
QVQLVESGGGLVQAGGSLRLSCAASGFTFRNNAMGWYRQAPGKERELVAAISYSGGSTYYADSVKGRFTISRDNAKNTVYLQMNSLKPEDTAVYYCNPRRWSYLEYDYWGQGTQVTVSS | low polyreactivity
QVQLVESGGGLVQAGGSLRLSCAASGFTFRRNVIGWYRQAPGKERELVAAIRGSDGSTYYADSVKGRFTNSRDNAKNTVYLQMNSLKPEDTAVYYCNVVGIGLYRKMGYWGQGTQVTVSS | high polyreactivity
QVQLVESGGGLVQAGGSLRLSCAASGFTFRRYAMGWYRQAPGKERELVAAISLRSGRTNYADSVKGRFTISRDNAKNTVYLQMNSLKPEDTAVYYCAAGLYGKRAGTSYGYDYWGQGTQVTVSS | high polyreactivity
QVQLVESGGGLVQAGGSLRLSCAASGFTFRRYAMGWYRQAPGKERELVAAISRGSSTYYADSVKGRFTISRDNAKNTVYLQMNSLKPEDTAVYYCAADWEQLRGTMDYWGQGTQVTVSS | high polyreactivity
QVQLVESGGGLVQAGGSLRLSCAASGFTFRRYAMGWYRQAPGKERELVAAISTSGGRTYYADSVKGRFTISRDYAKITVYLQMNSLKPEDSAVYDCNAAGGYRTSPSDYWGQGTQVTVSS | high polyreactivity
QVQLVESGGGLVQAGGSLRLSCAASGFTFRSNAMGWYRQAPGKERELVAAISYSGDSTYYADSVKGRFTISRDTAKNTVYLQMNSLKPEDTAVYYCAADGYDQWGRVGVYLIWTSYDYWGQGTQVTVSS | high polyreactivity
QVQLVESGGGLVQAGGSLRLSCAASGFTFRSNAMGWYRQAPGKERELVAAISYSGGDTYYADSVKGRFTISRDNAKNTVFLQMNSLKPEDTAVYYCAADDPASPLGEYWGQGTQVTVSS | low polyreactivity
QVQLVESGGGLVQAGGSLRLSCAASGFTFRSNVMGWYRQAPRKERELVAAIRWSGGSTYYADSVKGRFTISRDNAMNTVYLQMNSLKPDDTAVYYCNARIYRSGYKFNYWGQGTQVTVSS | high polyreactivity
QVQLVESGGGLVQAGGSLRLSCAASGFTFRTYAMGWYRQAPGKERELVAGISQGGGSTYYADSVKGRFTISRDNAKNTVYLQMKSLKTEVTAVYYCAKARNSNARFGYWGQGTQVTVSS | high polyreactivity
QVQLVESGGGLVQAGGSLRLSCAASGFTFRVNAMGWYRQAPGKERELVARISSSGGITYYADSVKGRFTISRDNAKNTVYLQMNSLKPEDTAVYYCAKEVYSGYSTRARSRYYEYYYWGQGTQVTVSS | high polyreactivity
QVQLVESGGGLVQAGGSLRLSCAASGFTFRVNAMGWYRQAPGKESELVAAISSGGGITYYADSVKGRFTISRDNAKNTVYLQMNSLKPEDTAVYYCAARENRYLERDYWGQGTQVTVSS | low polyreactivity
